Data set [1] deals with the molecule itself. Briefly: not stated; oligomeric states of purified orthologs and of full-length proteins, Figures S7A, S7B and S3J.
Data set [2] concerns the molecule itself. Description: native gel or EMSA; native PAGE of lysates of HEK293 cells transfected with FLAG- or HA-tagged proteins, immunoblotting; recombinant USP25 tetramer and dimer fractions as size standard. (In general: In EMSA bound probe runs differently from free probe, usually more slowly.)
Data set [3] deals with the molecule itself. Description: SEC-MALS; 100 μL of 1-2 mg/mL protein on Superdex 200 10/300, 0.5 mL/min, PBS + 2 mM DTT. In general terms: In gel filtration, larger molecules generally elute earlier.

Values joined by “and” are separate entries in the source; they are usually repeats but may differ in a detail not shown here. Equal values may be shown once.

Consider six proteins from article PMC6509359 (Molecular Cell, 2019).

As a reminder, the stoichiometry N is the number of molecules, sites or subunits per partner or assembly.

B1: M. musculus USP25 (1-1055) (enzyme, mouse (Mus musculus), UniProt P57080 1-1055, looked up)
chain: MTVEQNVLQQSAAQKHQQTFLNQLREITGINDAQILQQALKDSNGNLELAVAFLTAKNAKTPPQEETGYYQTALPGNDRYISVGSQADANVIDLTGDDKDDLQRAIALSLAESNRAFRETGITDEEQAISRVLEASIAENKACLKRTPIEVWRDSRNPYDRKRQEKAPVGLKNVGNTCWFSAVIQSLFNLLEFRRLVLNYKPPSNAQDLPRNQKEHRNLPFMRELRYLFALLVGTKRKYVDPSRAVEILKDAFKSNDSQQQDVSEFTHKLLDWLEDAFQMKAEEETDEEKPKNPMVELFYGRFLAMGVLEGKKFENTEMFGQYPLQVNGFKDLHECLEAAMIEGEIESLHSDNSGKSGQEHWFTELPPVLTFELSRFEFNQALGRPEKIHNKLEFPQVLYLDRYMHRNREITRIKREEIKRLKDYLTVLQQRLERYLSYGSGPKRFPLVDVLQYALEFASSKPVCTSPVDDIDASSSASGPLPSQSLPSTTEQQGPCASDLPGSSSPASGAALPLRSVIHKPFTQSRIPPDLPMHPAPRHITEEELCVLESCLHRWRTEIENDTRDLQESISRIHRTIELMYSDKSMIQVPYRLHAVLVHEGQANAGHYWAYIFDHRESRWMKYNDIAVTKSSWEELVRDSFGGYRNASAYCLMYIDDKAQFLIQEEFNKETGQALVGMETLPPDLRDFVEEDNQRFEKELEEWDTQLAQRSLQEKLLAAPKLREAEASATTAQAGGADYLEQPSRSDLSKHWKEETLRVIAKASHDLEDKGPETVLQSAIKLEYSRLVKLAQEDTPPETDYRLHHVLVYFIQNQAPKKIIEKTLLEQFGDRNLSFDERCHNIMKVAQAKLEMIKPEEVNLEEYEEWHADYKKFRETTMYLITGLENFQRESYIDSLLFLLCAYQNNKELLSKGPYRGHDGELISHYRRECLLKLNEQAAELFESGEDGDVNNGLIIMNEFIVPFLPLLLVDDMEEKDILAVEDMRNRWCSYLGQEMEANLQEKLTDFLPKLLDCSTEIKGFHEPPKLPSYSAHELCERFARIMLSLSRTPADGR
notes: dimer-tetramer equilibrium; also called full-length mouse USP25; source: E. coli Rosetta2(DE3)pLacI, purified (HisTrap, 3C protease, Resource Q, size exclusion)
As to B1, the “stoichiometry N” value in data set [1] was 2 and 4.

B2: G. gallus USP28 (143-706) (domain or fragment, chicken (Gallus gallus), UniProt Q5ZID5 143-706, looked up)
chain: SKQSDWKRVGDWPVGMKNIGNTCWFSAVIQSLFQLPQFRRLVLSYSFPPNVLESCRTRTGKRNIAFMQELQCLFALMLGTRRKFVDPSAALELLRDAFKSTEEQQQDVSEFTHKLLDWLEDAFQLAVNVRSPGDKSENPMVQLFYGTFLTEGVHEGNTFSKIETFGQYPLQVNGYRNLNECLEGAMVEGEMDEETATQSVKYVQERWFTKLPPVLTFELSRFEFNQSLGQPEKIHTKLEFPQTIFMDRYLYCSKELIQTKREEMKKLKEKMLVLQQKLERYMKYGSGPARFPLPDMLQYVLEFITTKPAGAVSSACVSSTEDSQMMDRQSQGESLILGTPSQPDSMLDGKDGKPEDEAVLLANSSPQQQLNAPLQPSEPPAEMSDCPAPHVVSEEEMNLVTTCLQRWRNEIEQDVRDLKESIARVSLSIDEMYSDPHLQQVPYHLHAVLVHEGQANAGHYWAFIYDQPRKSWLKYNDISVTESSWEELERDSFGGLRNASAYCLMYISDKVSHVVAGEGDGSEVGQFQKEVEALPPELRRYIQEDNWRLEQEAEEWEEEQSCKI
notes: USP28, chicken, residues 143-706; also called USP28 catalytic domain from chicken; source: E. coli Rosetta2(DE3)pLacI, purified (HisTrap, 3C protease, Resource Q, size exclusion)
In the case of B2, the “stoichiometry N” value in data set [1] was 2.

B3: Flag-USP25 (2-1055) (enzyme, human, UniProt Q9UHP3 2-1055, looked up)
chain: TVEQNVLQQSAAQKHQQTFLNQLREITGINDTQILQQALKDSNGNLELAVAFLTAKNAKTPQQEETTYYQTALPGNDRYISVGSQADTNVIDLTGDDKDDLQRAIALSLAESNRAFRETGITDEEQAISRVLEASIAENKACLKRTPTEVWRDSRNPYDRKRQDKAPVGLKNVGNTCWFSAVIQSLFNLLEFRRLVLNYKPPSNAQDLPRNQKEHRNLPFMRELRYLFALLVGTKRKYVDPSRAVEILKDAFKSNDSQQQDVSEFTHKLLDWLEDAFQMKAEEETDEEKPKNPMVELFYGRFLAVGVLEGKKFENTEMFGQYPLQVNGFKDLHECLEAAMIEGEIESLHSENSGKSGQEHWFTELPPVLTFELSRFEFNQALGRPEKIHNKLEFPQVLYLDRYMHRNREITRIKREEIKRLKDYLTVLQQRLERYLSYGSGPKRFPLVDVLQYALEFASSKPVCTSPVDDIDASSPPSGSIPSQTLPSTTEQQGALSSELPSTSPSSVAAISSRSVIHKPFTQSRIPPDLPMHPAPRHITEEELSVLESCLHRWRTEIENDTRDLQESISRIHRTIELMYSDKSMIQVPYRLHAVLVHEGQANAGHYWAYIFDHRESRWMKYNDIAVTKSSWEELVRDSFGGYRNASAYCLMYINDKAQFLIQEEFNKETGQPLVGIETLPPDLRDFVEEDNQRFEKELEEWDAQLAQKALQEKLLASQKLRESETSVTTAQAAGDPEYLEQPSRSDFSKHLKEETIQIITKASHEHEDKSPETVLQSAIKLEYARLVKLAQEDTPPETDYRLHHVVVYFIQNQAPKKIIEKTLLEQFGDRNLSFDERCHNIMKVAQAKLEMIKPEEVNLEEYEEWHQDYRKFRETTMYLIIGLENFQRESYIDSLLFLICAYQNNKELLSKGLYRGHDEELISHYRRECLLKLNEQAAELFESGEDREVNNGLIIMNEFIVPFLPLLLVDEMEEKDILAVEDMRNRWCSYLGQEMEPHLQEKLTDFLPKLLDCSMEIKSFHEPPKLPSYSTHELCERFARIMLSLSRTPADGR
notes: tetrameric and dimeric populations; also called FLAG-tagged USP25; ectopically expressed wild-type USP25; source: HEK293, transfected (pOPINE), in lysate; not shown: Flag, N-terminal, kept
For the protein B3, the “stoichiometry N” value in data set [2] was 4 and 2.

B4: Flag-USP25 (2-1055) P521S F522E (enzyme, human, UniProt Q9UHP3 2-1055, looked up)
chain: TVEQNVLQQSAAQKHQQTFLNQLREITGINDTQILQQALKDSNGNLELAVAFLTAKNAKTPQQEETTYYQTALPGNDRYISVGSQADTNVIDLTGDDKDDLQRAIALSLAESNRAFRETGITDEEQAISRVLEASIAENKACLKRTPTEVWRDSRNPYDRKRQDKAPVGLKNVGNTCWFSAVIQSLFNLLEFRRLVLNYKPPSNAQDLPRNQKEHRNLPFMRELRYLFALLVGTKRKYVDPSRAVEILKDAFKSNDSQQQDVSEFTHKLLDWLEDAFQMKAEEETDEEKPKNPMVELFYGRFLAVGVLEGKKFENTEMFGQYPLQVNGFKDLHECLEAAMIEGEIESLHSENSGKSGQEHWFTELPPVLTFELSRFEFNQALGRPEKIHNKLEFPQVLYLDRYMHRNREITRIKREEIKRLKDYLTVLQQRLERYLSYGSGPKRFPLVDVLQYALEFASSKPVCTSPVDDIDASSPPSGSIPSQTLPSTTEQQGALSSELPSTSPSSVAAISSRSVIHKSETQSRIPPDLPMHPAPRHITEEELSVLESCLHRWRTEIENDTRDLQESISRIHRTIELMYSDKSMIQVPYRLHAVLVHEGQANAGHYWAYIFDHRESRWMKYNDIAVTKSSWEELVRDSFGGYRNASAYCLMYINDKAQFLIQEEFNKETGQPLVGIETLPPDLRDFVEEDNQRFEKELEEWDAQLAQKALQEKLLASQKLRESETSVTTAQAAGDPEYLEQPSRSDFSKHLKEETIQIITKASHEHEDKSPETVLQSAIKLEYARLVKLAQEDTPPETDYRLHHVVVYFIQNQAPKKIIEKTLLEQFGDRNLSFDERCHNIMKVAQAKLEMIKPEEVNLEEYEEWHQDYRKFRETTMYLIIGLENFQRESYIDSLLFLICAYQNNKELLSKGLYRGHDEELISHYRRECLLKLNEQAAELFESGEDREVNNGLIIMNEFIVPFLPLLLVDEMEEKDILAVEDMRNRWCSYLGQEMEPHLQEKLTDFLPKLLDCSMEIKSFHEPPKLPSYSTHELCERFARIMLSLSRTPADGR
notes: also called USP25 mutated in the AIM (P521S F522E); source: HEK293, transfected (pOPINE), in lysate; not shown: Flag, N-terminal, kept
In the case of B4, in data set [2], the “stoichiometry N” value was 2.

B5: HA-USP28 (2-1077) (enzyme, human, UniProt Q96RU2 2-1077, looked up)
chain: TAELQQDDAAGAADGHGSSCQMLLNQLREITGIQDPSFLHEALKASNGDITQAVSLLTDERVKEPSQDTVATEPSEVEGSAANKEVLAKVIDLTHDNKDDLQAAIALSLLESPKIQADGRDLNRMHEATSAETKRSKRKRCEVWGENPNPNDWRRVDGWPVGLKNVGNTCWFSAVIQSLFQLPEFRRLVLSYSLPQNVLENCRSHTEKRNIMFMQELQYLFALMMGSNRKFVDPSAALDLLKGAFRSSEEQQQDVSEFTHKLLDWLEDAFQLAVNVNSPRNKSENPMVQLFYGTFLTEGVREGKPFCNNETFGQYPLQVNGYRNLDECLEGAMVEGDVELLPSDHSVKYGQERWFTKLPPVLTFELSRFEFNQSLGQPEKIHNKLEFPQIIYMDRYMYRSKELIRNKRECIRKLKEEIKILQQKLERYVKYGSGPARFPLPDMLKYVIEFASTKPASESCPPESDTHMTLPLSSVHCSVSDQTSKESTSTESSSQDVESTFSSPEDSLPKSKPLTSSRSSMEMPSQPAPRTVTDEEINFVKTCLQRWRSEIEQDIQDLKTCIASTTQTIEQMYCDPLLRQVPYRLHAVLVHEGQANAGHYWAYIYNQPRQSWLKYNDISVTESSWEEVERDSYGGLRNVSAYCLMYINDKLPYFNAEAAPTESDQMSEVEALSVELKHYIQEDNWRFEQEVEEWEEEQSCKIPQMESSTNSSSQDYSTSQEPSVASSHGVRCLSSEHAVIVKEQTAQAIANTARAYEKSGVEAALSEVMLSPAMQGVILAIAKARQTFDRDGSEAGLIKAFHEEYSRLYQLAKETPTSHSDPRLQHVLVYFFQNEAPKRVVERTLLEQFADKNLSYDERSISIMKVAQAKLKEIGPDDMNMEEYKKWHEDYSLFRKVSVYLLTGLELYQKGKYQEALSYLVYAYQSNAALLMKGPRRGVKESVIALYRRKCLLELNAKAASLFETNDDHSVTEGINVMNELIIPCIHLIINNDISKDDLDAIEVMRNHWCSYLGQDIAENLQLCLGEFLPRLLDPSAEIIVLKEPPTIRPNSPYDLCSRFAAVMESIQGVSTVTVK
notes: USP28, human, residues 2-1077; also called hemagglutinin (HA)-tagged USP28, wild type; source: HEK293, transfected (pOPINE), in lysate; not shown: HA, N-terminal, kept
Consider B5, for which the “stoichiometry N” value in data set [2] was 2.

B6: Chimera: Human USP25 (157-[AIM of Human USP28]-714) (domain or fragment)
chain: NPYDRKRQDKAPVGLKNVGNTCWFSAVIQSLFNLLEFRRLVLNYKPPSNAQDLPRNQKEHRNLPFMRELRYLFALLVGTKRKYVDPSRAVEILKDAFKSNDSQQQDVSEFTHKLLDWLEDAFQMKAEEETDEEKPKNPMVELFYGRFLAVGVLEGKKFENTEMFGQYPLQVNGFKDLHECLEAAMIEGEIESLHSENSGKSGQEHWFTELPPVLTFELSRFEFNQALGRPEKIHNKLEFPQVLYLDRYMHRNREITRIKREEIKRLKDYLTVLQQRLERYLSYGSGPKRFPLVDVLQYALEFASSKPVCTSPVDDIDASSPPSGSIPSQTLPSTTEQQGALSSELPSTSPSSVAAISSSLPKSKPLTSSRSSPDLPMHPAPRHITEEELSVLESCLHRWRTEIENDTRDLQESISRIHRTIELMYSDKSMIQVPYRLHAVLVHEGQANAGHYWAYIFDHRESRWMKYNDIAVTKSSWEELVRDSFGGYRNASAYCLMYINDKAQFLIQEEFNKETGQPLVGIETLPPDLRDFVEEDNQRFEKELEEWDAQLAQKALQE
On to B6, for which the “stoichiometry N” value in data set [3] is 2.
